Test results reported in the supplement of paper PMC7877785.
± gives the uncertainty stated by the source.

Test: self-splicing fitness, log relative to wild type (ln ratio); higher = more splicing; Tetrahymena group I intron in knt gene, E. coli kanamycin selection, DiMSum; sequences stand for … in CUCUCU…GGAGGGAAAAGUUAUCAGGCAUGCACCUGGUAGCUAGUCUUUAAACCAAUAGAUUGCAUCGGUUUAAAAGGCAAGACCGUCAAAUUGCGGGAAAGGGGUCAACAGCCGUUCAGUACCAAGUCUCAGGGGAAACUUUGAGAUGGCCUUGCAAAGGGUAUGGUAAUAAGCUGACGGACAUGGUCCUAACCACGCAGCCAAGUCCUAAGUCAACAGAUCUUCUGUUGAUAUGGAUGCAGUUCACAGACUAAAUGUCGGUCGGGGAAGAUGUAUUCUUCUCAUAAGAUAUAGUCGGACCUCUCCUUAAUGGGAGCUAGCGGAUGAAGUGAUGCAACACUGGAGCCGCUGGGAACUAAUUUGUAUGCGAAAGUAUAUUGAUUAGUUUUGGAGUACUCGUGGUCG
In short: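 Library with all eight P1ex-region intron nucleotides randomised, intron inside the knt kanamycin-resistance gene on pET-22b(+), in E. coli BL21(DE3). Cells grew overnight at 37°C or 30°C on LB agar with or without 25 μg/mL kanamycin (plus 100 μg/mL carbenicillin, 50 μM IPTG, 0.2% rhamnose), in six replicate transformations. Pooled colonies were amplicon-sequenced on Illumina HiSeq 2500. DiMSum fitness is the error-weighted combination of wild-type-normalised replicate fold changes, kanamycin versus none.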

Sequence	self-splicing fitness (ln) (30 °C)	self-splicing fitness (ln) (37 °C)
GGGCAGCAAUAUUACGGAAA	-2.77 ± 0.21	-2.26 ± 0.19
GGGCAGCAAUAUUACGGCUG	-2.27 ± 0.15	-1.8 ± 0.18
GGGCAGCAAUAUUACGGGCA	-2.14 ± 0.13	-0.0115 ± 0.09
GGGCAGCAAUAUUACGGGCU	-3.06 ± 0.14	-2.04 ± 0.18
GGGCAGCAAUAUUACGGUCU	-3.22 ± 0.26	-1.03 ± 0.24
GGGCAGCAAUAUUACGUCAC		-1.18 ± 0.42
GGGCAGCAAUAUUACGUCCC	-2.38 ± 0.46	
GGGCAGCAAUAUUACGUGUA	-2.19 ± 0.15	-0.515 ± 0.12
GGGCAGCAAUAUUACGUUCU	-2.35 ± 0.19	-1.2 ± 0.14
GGGCAGCAAUAUUACGUUGG	-3.05 ± 0.16	-1.65 ± 0.15
GGGGAGCAAUAUUACGACCG	-1.02 ± 0.41	
GGGGAGCAAUAUUACGAGGU	-3.44 ± 0.22	-1.82 ± 0.26
GGGGAGCAAUAUUACGCAGG		-2.08 ± 0.46
GGGGAGCAAUAUUACGCAGU		-1.35 ± 0.36
GGGGAGCAAUAUUACGCAUU	-3.09 ± 0.27	-1.93 ± 0.21
GGGGAGCAAUAUUACGCCUU		-0.939 ± 0.35
GGGGAGCAAUAUUACGCGGA	-2.24 ± 0.32	-2.59 ± 0.36
GGGGAGCAAUAUUACGGAAC		-2.95 ± 0.26
GGGGAGCAAUAUUACGGGCA	-2.87 ± 0.34	-1.47 ± 0.26
GGGGAGCAAUAUUACGUAUC	-2.03 ± 0.2	-2.19 ± 0.37
GGGGAGCAAUAUUACGUCUC	-1.64 ± 0.4	
GGGGAGCAAUAUUACGUCUU	-1.91 ± 0.12	-0.96 ± 0.18

Sequence	self-splicing fitness (ln) (30 °C)	self-splicing fitness (ln) (37 °C)
GGGGAGCAAUAUUACGUGGA	-2.04 ± 0.35	-2.48 ± 0.39
GGGGAGCAAUAUUACGUGUU	-3.92 ± 0.35	-2.29 ± 0.27
GGGGAGCAAUAUUACGUUCG	-2.01 ± 0.18	-0.941 ± 0.16
GGGUAGCAAUAUUACGAAGA	-1.72 ± 0.21	-1.62 ± 0.21
GGGUAGCAAUAUUACGAAUU	-1.04 ± 0.084	-0.438 ± 0.11
GGGUAGCAAUAUUACGACAG	-2.84 ± 0.2	-1.9 ± 0.21
GGGUAGCAAUAUUACGACCU	-2.3 ± 0.36	
GGGUAGCAAUAUUACGACGG		-1.18 ± 0.44
GGGUAGCAAUAUUACGAGCA	-0.991 ± 0.2	0.0569 ± 0.17
GGGUAGCAAUAUUACGAUUG	-1.63 ± 0.23	-2.13 ± 0.25
GGGUAGCAAUAUUACGCAUA		-0.676 ± 0.24
GGGUAGCAAUAUUACGCAUG	-1.68 ± 0.18	-2.73 ± 0.32
GGGUAGCAAUAUUACGCCAG		-2.81 ± 0.47
GGGUAGCAAUAUUACGCCAU	-2.4 ± 0.26	-1.32 ± 0.19
GGGUAGCAAUAUUACGCGGG	-2.2 ± 0.26	-2.42 ± 0.23
GGGUAGCAAUAUUACGGCGA	-0.516 ± 0.1	0.326 ± 0.12
GGGUAGCAAUAUUACGGCUA	-0.886 ± 0.24	-1.24 ± 0.22
GGGUAGCAAUAUUACGGGAC	-2.79 ± 0.2	-0.633 ± 0.13
GGGUAGCAAUAUUACGGUCA	0.229 ± 0.18	-0.659 ± 0.18
GGGUAGCAAUAUUACGUAAA	-0.962 ± 0.13	-0.0364 ± 0.15
GGGUAGCAAUAUUACGUAGA	-1.89 ± 0.17	-0.619 ± 0.15
GGGUAGCAAUAUUACGUAUG		-1.84 ± 0.19

Sequence	self-splicing fitness (ln) (30 °C)	self-splicing fitness (ln) (37 °C)
GGGUAGCAAUAUUACGUUCU	-0.416 ± 0.11	-0.164 ± 0.13
GGUAAGCAAUAUUACGAAAC	-1.48 ± 0.14	-0.179 ± 0.12
GGUAAGCAAUAUUACGAAGC	-3.07 ± 0.23	-0.664 ± 0.23
GGUAAGCAAUAUUACGAAGG	-3.74 ± 0.25	-2.84 ± 0.25
GGUAAGCAAUAUUACGACCU	-1.81 ± 0.18	-1.93 ± 0.24
GGUAAGCAAUAUUACGACUG	-0.569 ± 0.12	-0.0619 ± 0.14
GGUAAGCAAUAUUACGAGAA	-2.48 ± 0.42	-2.67 ± 0.37
GGUAAGCAAUAUUACGAGCG	0.017 ± 0.17	0.512 ± 0.17
GGUAAGCAAUAUUACGAUCA	-0.121 ± 0.1	-0.203 ± 0.1
GGUAAGCAAUAUUACGAUGA	-1.83 ± 0.26	-0.16 ± 0.2
GGUAAGCAAUAUUACGCAUU	-1.86 ± 0.14	-0.797 ± 0.12
GGUAAGCAAUAUUACGCGAC	-2.04 ± 0.16	-1.19 ± 0.2
GGUAAGCAAUAUUACGCGUC	-1.95 ± 0.2	0.649 ± 0.18
GGUAAGCAAUAUUACGCUAG	-4.34 ± 0.36	-2.92 ± 0.29
GGUAAGCAAUAUUACGGCCU	-2.34 ± 0.33	
GGUAAGCAAUAUUACGGCUC	-0.214 ± 0.14	-0.443 ± 0.16
GGUAAGCAAUAUUACGGUAU	-1.32 ± 0.074	-1.44 ± 0.11
GGUAAGCAAUAUUACGUAUU	-2.21 ± 0.12	-1.22 ± 0.13
GGUAAGCAAUAUUACGUCGC	-1.17 ± 0.13	-0.683 ± 0.13
GGUAAGCAAUAUUACGUGAA	-1.52 ± 0.098	-1.18 ± 0.14
GGUAAGCAAUAUUACGUUCC	-2.47 ± 0.18	-2.85 ± 0.24
